# According to patent CN113416248A (INST MILITARY MEDICINE ACADEMY MILITARY SCIENCES PLA, dated 2021):
# Target: T1, 金黄色葡萄球菌B型肠毒素(SEB)抗原 (Staphylococcus aureus enterotoxin B) (Staphylococcus aureus, UniProt P01552 28-266)
# T1 sequence: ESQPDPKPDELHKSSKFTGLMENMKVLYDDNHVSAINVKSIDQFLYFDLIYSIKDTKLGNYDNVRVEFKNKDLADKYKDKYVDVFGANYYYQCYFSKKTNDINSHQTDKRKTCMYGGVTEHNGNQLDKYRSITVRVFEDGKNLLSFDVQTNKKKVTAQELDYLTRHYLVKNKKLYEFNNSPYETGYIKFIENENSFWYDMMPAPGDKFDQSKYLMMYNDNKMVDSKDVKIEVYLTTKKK
# Test: monoclonal phage ELISA on coated SEB antigen, anti-M13-HRP, OD450
binder,measurement,value
"抗肠毒素的纳米抗体 (anti-SEB nanobody, heavy chain variable region SEQ ID NO: 8) (VHH) VHH: QVQLVESGGGSVQAGASLTLSCVVSVRTDSYAMGWMRQAPGKEREVIAGVSWSGQSTTYADSVKGRFTISRDNAKRAVYLQMGNLKPEDTAVYYCAMGRAPFYIGLTSEPEAYESWGQGTQVTVSL",binding result,binds
